Here are results for 3 molecules from US20140274782A1, “AFFINITY REAGENTS AND METHODS FOR DETECTION, PURIFICATION, AND PROTEOMIC ANALYSIS OF METHYLATED PROTEINS” (The Board of Trustees of the Leland Stanford Junior …, priority 2013, published 2014).

One test relates to 3×MBT domain of L3MBTL1. As to the kind of experiment: Triple SILAC pull-down, 3xMBT/3xMBTD355N ratio (cytoplasmic, nuclear and chromatin fractions of 293T cells).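 As to all read-outs here: proteins quantified with MaxQuant, requiring at least two unique peptides and quantification in both label directions, normalized to the mean of proteins from a digested loading control.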 The format is binding, human. As to conditions: for 3xMBT/D355N UNC Heavy: experiment with UNC0638 in heavy SILAC media; for 3xMBT/D355N UNC Light: experiment with UNC0638 in light SILAC media.
The next test concerns the target T1, G9a and GLP (Homo sapiens, UniProt Q96KQ7+Q9H9B1).
T1 sequence (Q96KQ7 2-1210 limits assumed): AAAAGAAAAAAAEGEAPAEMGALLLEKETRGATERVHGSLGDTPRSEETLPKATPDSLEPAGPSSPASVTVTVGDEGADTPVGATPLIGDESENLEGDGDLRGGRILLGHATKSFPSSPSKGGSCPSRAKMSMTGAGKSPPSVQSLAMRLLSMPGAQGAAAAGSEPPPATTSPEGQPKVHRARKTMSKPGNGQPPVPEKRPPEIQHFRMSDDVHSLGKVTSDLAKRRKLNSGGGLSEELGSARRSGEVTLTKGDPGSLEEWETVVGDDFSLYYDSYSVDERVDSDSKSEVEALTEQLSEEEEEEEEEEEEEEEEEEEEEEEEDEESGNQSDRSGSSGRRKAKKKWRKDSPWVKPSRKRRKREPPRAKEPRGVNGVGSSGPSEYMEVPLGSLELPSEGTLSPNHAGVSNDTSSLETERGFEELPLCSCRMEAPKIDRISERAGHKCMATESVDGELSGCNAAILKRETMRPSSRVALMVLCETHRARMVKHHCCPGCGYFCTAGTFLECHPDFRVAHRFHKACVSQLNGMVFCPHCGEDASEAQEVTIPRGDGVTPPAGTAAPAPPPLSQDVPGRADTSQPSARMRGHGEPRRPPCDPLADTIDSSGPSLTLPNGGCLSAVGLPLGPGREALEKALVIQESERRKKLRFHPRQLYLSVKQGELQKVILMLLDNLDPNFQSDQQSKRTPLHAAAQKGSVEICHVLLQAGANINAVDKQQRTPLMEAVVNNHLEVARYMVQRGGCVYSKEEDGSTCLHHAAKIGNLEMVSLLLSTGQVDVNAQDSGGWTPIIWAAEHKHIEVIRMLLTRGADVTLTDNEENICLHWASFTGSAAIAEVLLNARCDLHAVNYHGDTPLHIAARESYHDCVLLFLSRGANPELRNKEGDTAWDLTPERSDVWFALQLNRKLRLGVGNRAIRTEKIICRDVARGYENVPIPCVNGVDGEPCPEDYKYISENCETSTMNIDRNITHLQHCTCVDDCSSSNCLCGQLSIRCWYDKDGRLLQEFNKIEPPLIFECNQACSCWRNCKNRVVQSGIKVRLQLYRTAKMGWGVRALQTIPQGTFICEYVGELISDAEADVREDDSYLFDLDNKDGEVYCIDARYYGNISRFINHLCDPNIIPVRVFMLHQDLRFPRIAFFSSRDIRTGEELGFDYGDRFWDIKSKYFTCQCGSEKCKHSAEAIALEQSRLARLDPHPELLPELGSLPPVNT
T1 sequence (Q9H9B1 2-1298 limits assumed): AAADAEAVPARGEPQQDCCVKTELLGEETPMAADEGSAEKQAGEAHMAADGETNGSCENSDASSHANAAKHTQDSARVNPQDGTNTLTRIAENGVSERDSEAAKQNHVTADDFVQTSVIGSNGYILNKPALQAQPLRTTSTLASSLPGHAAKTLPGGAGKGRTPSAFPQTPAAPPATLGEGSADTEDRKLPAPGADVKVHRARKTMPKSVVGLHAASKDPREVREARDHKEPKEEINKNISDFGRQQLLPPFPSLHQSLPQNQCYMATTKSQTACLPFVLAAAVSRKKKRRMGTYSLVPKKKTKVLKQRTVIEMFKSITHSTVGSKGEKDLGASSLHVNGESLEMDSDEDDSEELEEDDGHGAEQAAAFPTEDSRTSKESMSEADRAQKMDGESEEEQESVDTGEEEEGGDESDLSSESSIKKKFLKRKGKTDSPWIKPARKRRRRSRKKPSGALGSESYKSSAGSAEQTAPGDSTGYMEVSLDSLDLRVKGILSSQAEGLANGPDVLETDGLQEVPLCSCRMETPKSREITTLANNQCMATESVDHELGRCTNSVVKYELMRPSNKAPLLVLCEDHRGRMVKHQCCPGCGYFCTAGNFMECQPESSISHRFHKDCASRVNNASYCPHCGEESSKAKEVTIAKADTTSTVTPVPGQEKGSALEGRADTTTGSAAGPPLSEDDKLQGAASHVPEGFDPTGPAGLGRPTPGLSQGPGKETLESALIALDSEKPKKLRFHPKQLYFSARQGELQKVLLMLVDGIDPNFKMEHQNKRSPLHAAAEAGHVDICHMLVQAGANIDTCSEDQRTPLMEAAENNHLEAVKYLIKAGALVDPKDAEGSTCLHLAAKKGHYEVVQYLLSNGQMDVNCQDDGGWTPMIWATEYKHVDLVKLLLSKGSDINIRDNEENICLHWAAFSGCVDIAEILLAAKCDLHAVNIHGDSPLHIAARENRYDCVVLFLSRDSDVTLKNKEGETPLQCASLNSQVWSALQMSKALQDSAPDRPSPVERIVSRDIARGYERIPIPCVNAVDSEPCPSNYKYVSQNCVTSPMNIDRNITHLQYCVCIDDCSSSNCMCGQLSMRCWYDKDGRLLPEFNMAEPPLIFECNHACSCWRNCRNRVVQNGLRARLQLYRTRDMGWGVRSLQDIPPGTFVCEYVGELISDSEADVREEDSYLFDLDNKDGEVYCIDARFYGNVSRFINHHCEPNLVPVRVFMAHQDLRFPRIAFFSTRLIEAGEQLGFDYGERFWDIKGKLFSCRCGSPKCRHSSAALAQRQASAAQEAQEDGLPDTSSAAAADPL
As to the kind of experiment: Triple SILAC pull-down after UNC0638 treatment of 293T cells, DMSO/UNC0638 ratio of protein captured by 3×MBT.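 As to all read-outs here: mass spectrometry (Q-Exactive) SILAC quantitation, DMSO/UNC0638 ratio computed after subtracting 3×MBTD355N mutant pull-down background, only proteins with at least twofold 3×MBT over mutant signal considered.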 Type of test: cell-based. Details: cells were treated for 24 hours with UNC0638 at 2.5 μM or DMSO vehicle control; endogenous in cells; host or cells: HEK 293T. As to conditions: for Relative to UNC0638 UNC Heavy: UNC0638 in heavy SILAC media; for Relative to UNC0638 UNC Light: UNC0638 in light SILAC media; for Relative to UNC0638 Average: average of UNC Light and UNC Heavy experiments; for Candidate G9a/GLP target: reduced association with 3xMBT after UNC0638 treatment.

Setting [1] is: SILAC ratio, pull-down 3xMBT vs 3xMBTD355N.
[2] abbreviates: SILAC ratio DMSO/UNC0638 of protein pulled down with 3xMBT.
The mark [3] stands for this setting: SILAC ratio 3xMBT vs 3xMBTD355N pull-down, 293T cells, all values in log base 2.
[4] abbreviates: SILAC ratio DMSO relative to UNC0638, pull-down with 3xMBT, all values in log base 2.

B1: NUDT16L1 (protein, UniProt Q9BRJ7 1-211, looked up)
Tudor-interacting repair …: MSTAAVPELKQISRVEAMRLGPGWSHSCHAMLYAANPGQLFGRIPMRFSVLMQMRFDGLLGFPGGFVDRRFWSLEDGLNRVLGLGLGCLRLTEADYLSSHLTEGPHRVVAHLYARQLTLEQLHAVEISAVHSRDHGLEVLGLVRVPLYTQKDRVGGFPNFLSNAFVSTAKCQLLFALKVLNMMPEEKLVEALAAATEKQKKALEKLLPASS
As to B1, in the test on 3×MBT domain of L3MBTL1 (setting [1]), the “3xMBT/D355N UNC Heavy” value is on record as 1.84 log base 2 and the “3xMBT/D355N UNC Light” value stood at 1.77 log base 2. Besides, in the test with G9a and GLP (setting [2]), the “Relative to UNC0638 UNC Heavy” value is 0.57 log base 2 and the “Relative to UNC0638 UNC Light” value was determined as 0.28 log base 2. In the test with G9a and GLP, the “Relative to UNC0638 Average” value was 0.43 log base 2 and the “Candidate G9a/GLP target” value is given as “✓”.

B2: CAND1 (protein, UniProt Q86VP6 2-1230, looked up)
Cullin-associated …: ASASYHISNLLEKMTSSDKDFRFMATNDLMTELQKDSIKLDDDSERKVVKMILKLLEDKNGEVQNLAVKCLGPLVSKVKEYQVETIVDTLCTNMLSDKEQLRDISSIGLKTVIGELPPASSGSALAANVCKKITGRLTSAIAKQEDVSVQLEALDIMADMLSRQGGLLVNFHPSILTCLLPQLTSPRLAVRKRTIIALGHLVMSCGNIVFVDLIEHLLSELSKNDSMSTTRTYIQCIAAISRQAGHRIGEYLEKIIPLVVKFCNVDDDELREYCIQAFESFVRRCPKEVYPHVSTIINICLKYLTYDPNYNYDDEDEDENAMDADGGDDDDQGSDDEYSDDDDMSWKVRRAAAKCLDAVVSTRHEMLPEFYKTVSPALISRFKEREENVKADVFHAYLSLLKQTRPVQSWLCDPDAMEQGETPLTMLQSQVPNIVKALHKQMKEKSVKTRQCCFNMLTELVNVLPGALTQHIPVLVPGIIFSLNDKSSSSNLKIDALSCLYVILCNHSPQVFHPHVQALVPPVVACVGDPFYKITSEALLVTQQLVKVIRPLDQPSSFDATPYIKDLFTCTIKRLKAADIDQEVKERAISCMGQIICNLGDNLGSDLPNTLQIFLERLKNEITRLTTVKALTLIAGSPLKIDLRPVLGEGVPILASFLRKNQRALKLGTLSALDILIKNYSDSLTAAMIDAVLDELPPLISESDMHVSQMAISFLTTLAKVYPSSLSKISGSILNELIGLVRSPLLQGGALSAMLDFFQALVVTGTNNLGYMDLLRMLTGPVYSQSTALTHKQSYYSIAKCVAALTRACPKEGPAVVGQFIQDVKNSRSTDSIRLLALLSLGEVGHHIDLSGQLELKSVILEAFSSPSEEVKSAASYALGSISVGNLPEYLPFVLQEITSQPKRQYLLLHSLKEIISSASVVGLKPYVENIWALLLKHCECAEEGTRNVVAECLGKLTLIDPETLLPRLKGYLISGSSYARSSVVTAVKFTISDHPQPIDPLLKNCIGDFLKTLEDPDLNVRRVALVTFNSAAHNKPSLIRDLLDTVLPHLYNETKVRKELIREVEMGPFKHTVDDGLDIRKAAFECMYTLLDSCLDRLDIFEFLNHVEDGLKDHYDIKMLTFLMLVRLSTLCPSAVLQRLDRLVEPLRATCTTKVKANSVKQEFEKQDELKRSAMRAVAALLTIPEAEKSPLMSEFQSQISSNPELAAIFESIQKDSSSTNLESMDTS
Regarding B2, in the test on 3×MBT domain of L3MBTL1 (setting [3]), the “3xMBT/D355N UNC Heavy” value came out at 3.61 log base 2 and the “3xMBT/D355N UNC Light” value is 3.86 log base 2. Further, in the test with G9a and GLP (setting [4]), the “Relative to UNC0638 UNC Heavy” value is recorded as −3.85 log base 2 and the “Relative to UNC0638 UNC Light” value is listed as 1.78 log base 2. Moreover, the “Relative to UNC0638 Average” value with G9a and GLP (all values in log base 2) is −1.03 log base 2.

B3: DDX23 (protein, UniProt Q9BUQ8 1-820, looked up)
Probable ATP-dependent RNA …: MAGELADKKDRDASPSKEERKRSRTPDRERDRDRDRKSSPSKDRKRHRSRDRRRGGSRSRSRSRSKSAERERRHKERERDKERDRNKKDRDRDKDGHRRDKDRKRSSLSPGRGKDFKSRKDRDSKKDEEDEHGDKKPKAQPLSLEELLAKKKAEEEAEAKPKFLSKAEREAEALKRRQQEVEERQRMLEEERKKRKQFQDLGRKMLEDPQERERRERRERMERETNGNEDEEGRQKIREEKDKSKELHAIKERYLGGIKKRRRTRHLNDRKFVFEWDASEDTSIDYNPLYKERHQVQLLGRGFIAGIDLKQQKREQSRFYGDLMEKRRTLEEKEQEEARLRKLRKKEAKQRWDDRHWSQKKLDEMTDRDWRIFREDYSITTKGGKIPNPIRSWKDSSLPPHILEVIDKCGYKEPTPIQRQAIPIGLQNRDIIGVAETGSGKTAAFLIPLLVWITTLPKIDRIEESDQGPYAIILAPTRELAQQIEEETIKFGKPLGIRTVAVIGGISREDQGFRLRMGCEIVIATPGRLIDVLENRYLVLSRCTYVVLDEADRMIDMGFEPDVQKILEHMPVSNQKPDTDEAEDPEKMLANFESGKHKYRQTVMFTATMPPAVERLARSYLRRPAVVYIGSAGKPHERVEQKVFLMSESEKRKKLLAILEQGFDPPIIIFVNQKKGCDVLAKSLEKMGYNACTLHGGKGQEQREFALSNLKAGAKDILVATDVAGRGIDIQDVSMVVNYDMAKNIEDYIHRIGRTGRAGKSGVAITFLTKEDSAVFYELKQAILESPVSSCPPELANHPDAQHKPGTILTKKRREETIFA
Take B3: in the test with 3×MBT domain of L3MBTL1 (setting [1]), the “3xMBT/D355N UNC Heavy” value was found to be 2.24 log base 2 and the “3xMBT/D355N UNC Light” value worked out at 2.27 log base 2. Further, in the test with G9a and GLP (setting [2]), the “Relative to UNC0638 UNC Heavy” value is listed as 0.29 log base 2 and the “Relative to UNC0638 UNC Light” value is 0.54 log base 2. In the test with G9a and GLP, the “Relative to UNC0638 Average” value came out at 0.42 log base 2 and the “Candidate G9a/GLP target” value is on record as “✓”.
